log2FC and Class data for 4 molecules are collected here from article PMC11960969, “Mdga2 deficiency leads to an aberrant activation of BDNF/TrkB signaling that underlies autism-relevant synaptic and behavioral changes in mice” (PLOS Biology, 2025).

The experiment relates to hippocampal proteins. In words: DIA quantification proteomics, hippocampus of Mdga2+/- vs WT mice. Details: species or system mouse. The note with it: S3 Table, downregulated DEPs; for log2FC: Mdga2+/- vs WT mouse hippocampus (HET-HIP-VS-WT-HIP), SE, pvalue and adj_pvalue in own columns c3-c5; for Class: regulation class of the protein, HET-HIP-VS-WT-HIP. The method, boiled down:
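Hippocampi from 1.5–2-month-old male Mdga2+/− mice and WT littermates; 100 μg protein trypsin-digested, peptides high-pH fractionated. DDA-built spectral library, DIA by nano-LC–MS/MS with Spectronaut and mProphet QC. DEPs called at fold change >1.1 and p <0.05.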

B1: sp¦P60755¦MDGA2_MOUSE (protein, UniProt P60755 26-924, looked up)
MAM domain-containing …: PPTVRIVHSGLACNIEEERYSERVYTIREGETLELTCLVTGHPRPQIRWTKTAGSASDRFQDSSVFNETLRITNIQRHQGGRYYCKAENGLGSPAIKSIRVDVYYLDDPVVTVHQSIGEAKEQFYYERTVFLRCVANSNPPVRYSWRRGQEVLLQGSDKGVEIYEPFFTQGETKILKLKNLRPQDYANYSCIASVRNVCNIPDKMVSFRLSNKTASPSIKLLVDDPIVVNPGEAITLVCVTTGGEPTPSLTWVRSFGTLPEKIVLNGGTLTIPAITSDDAGTYSCIANNNVGNPAKKSTNIIVRALKKGRFWITPDPYHKDDNIQIGREVKISCQVEAVPSEELTFSWFKNGRPLRSSERMVITQTDPDVSPGTTNLDIIDLKFTDFGTYTCVASLKGGGISDISIDVNISSSTVPPNLTVPQEKSPLVTREGDTIELQCQVTGKPKPIILWSRADKEVAMPDGTMQMESYDGTLRIVNVSREMSGMYRCQTSQYNGFNVKPREALVQLIVQYPPAVEPAFLEIRQGQDRSVTMSCRVLRAYPIRVLTYEWRLGNKLLRTGQFDSQEYTEYPLKSLSNENYGVYNCSIINEAGAGRCSFLVTGKAYAPEFYYDTYNPVWQNRHRVYSYSLQWTQMNPDAVDRIVAYRLGIRQAGQQRWWEQEIKINGNIQKGELITYNLTELIKPEAYEVRLTPLTKFGEGDSTIRVIKYTGEFHCGFEDGNICLFTQDDTDNFDWTKQSTATRNTKYTPNTGPSADRSGSKEGFYMYIETSRPRLEGEKARLLSPVFSIAPKNPYGPTNSAYCFSFFYHMYGQHIGVLNVYLRLKGQTTIENPLWSSSGNKGQRWNEAHVNIYPITSFQLIFEGIRGPGIEGDIAIDDVSIAEGECAKQDLPTKNSVD
On to B1, for which the log2FC is recorded as -3.064 and the Class entry is listed as “Down”.

B2: sp¦P97333¦NRP1_MOUSE (protein, UniProt P97333 22-923, looked up)
Neuropilin-1: FRSDKCGGTIKIENPGYLTSPGYPHSYHPSEKCEWLIQAPEPYQRIMINFNPHFDLEDRDCKYDYVEVIDGENEGGRLWGKFCGKIAPSPVVSSGPFLFIKFVSDYETHGAGFSIRYEIFKRGPECSQNYTAPTGVIKSPGFPEKYPNSLECTYIIFAPKMSEIILEFESFDLEQDSNPPGGMFCRYDRLEIWDGFPEVGPHIGRYCGQKTPGRIRSSSGVLSMVFYTDSAIAKEGFSANYSVLQSSISEDFKCMEALGMESGEIHSDQITASSQYGTNWSVERSRLNYPENGWTPGEDSYKEWIQVDLGLLRFVTAVGTQGAISKETKKKYYVKTYRVDISSNGEDWISLKEGNKAIIFQGNTNPTDVVLGVFSKPLITRFVRIKPVSWETGISMRFEVYGCKITDYPCSGMLGMVSGLISDSQITASNQADRNWMPENIRLVTSRTGWALPPSPHPYTNEWLQVDLGDEKIVRGVIIQGGKHRENKVFMRKFKIAYSNNGSDWKTIMDDSKRKAKSFEGNNNYDTPELRTFSPLSTRFIRIYPERATHSGLGLRMELLGCEVEAPTAGPTTPNGNPVDECDDDQANCHSGTGDDFQLTGGTTVLATEKPTIIDSTIQSEFPTYGFNCEFGWGSHKTFCHWEHDSHAQLRWSVLTSKTGPIQDHTGDGNFIYSQADENQKGKVARLVSPVVYSQSSAHCMTFWYHMSGSHVGTLRVKLRYQKPEEYDQLVWMVVGHQGDHWKEGRVLLHKSLKLYQVIFEGEIGKGNLGGIAVDDISINNHISQEDCAKPTDLDKKNTEIKIDETGSTPGYEGEGEGDKNISRKPGNVLKTLDPILITIIAMSALGVLLGAVCGVVLYCACWHNGMSERNLSALENYNFELVDGVKLKKDKLNPQSNYSEA
With B2, the log2FC is -3.13 and the Class entry was “Down”.

B3: sp¦P05532¦KIT_MOUSE (protein, UniProt P05532 25-979, looked up)
Mast/stem cell growth factor …: SQPSASPGEPSPPSIHPAQSELIVEAGDTLSLTCIDPDFVRWTFKTYFNEMVENKKNEWIQEKAEATRTGTYTCSNSNGLTSSIYVFVRDPAKLFLVGLPLFGKEDSDALVRCPLTDPQVSNYSLIECDGKSLPTDLTFVPNPKAGITIKNVKRAYHRLCVRCAAQRDGTWLHSDKFTLKVRAAIKAIPVVSVPETSHLLKKGDTFTVVCTIKDVSTSVNSMWLKMNPQPQHIAQVKHNSWHRGDFNYERQETLTISSARVDDSGVFMCYANNTFGSANVTTTLKVVEKGFINISPVKNTTVFVTDGENVDLVVEYEAYPKPEHQQWIYMNRTSANKGKDYVKSDNKSNIRYVNQLRLTRLKGTEGGTYTFLVSNSDASASVTFNVYVNTKPEILTYDRLINGMLQCVAEGFPEPTIDWYFCTGAEQRCTTPVSPVDVQVQNVSVSPFGKLVVQSSIDSSVFRHNGTVECKASNDVGKSSAFFNFAFKGNNKEQIQAHTLFTPLLIGFVVAAGAMGIIVMVLTYKYLQKPMYEVQWKVVEEINGNNYVYIDPTQLPYDHKWEFPRNRLSFGKTLGAGAFGKVVEATAYGLIKSDAAMTVAVKMLKPSAHLTEREALMSELKVLSYLGNHMNIVNLLGACTVGGPTLVITEYCCYGDLLNFLRRKRDSFIFSKQEEQAEAALYKNLLHSTEPSCDSSNEYMDMKPGVSYVVPTKTDKRRSARIDSYIERDVTPAIMEDDELALDLDDLLSFSYQVAKGMAFLASKNCIHRDLAARNILLTHGRITKICDFGLARDIRNDSNYVVKGNARLPVKWMAPESIFSCVYTFESDVWSYGIFLWELFSLGSSPYPGMPVDSKFYKMIKEGFRMVSPEHAPAEMYDVMKTCWDADPLKRPTFKQVVQLIEKQISDSTKHIYSNLANCNPNPENPVVVDHSVRVNSVGSSASSTQPLLVHEDA
For B3, the log2FC is -2.731 and the Class entry is “Down”.

B4: sp¦Q3UH99¦SHSA6_MOUSE (protein, UniProt Q3UH99 31-525, looked up)
Protein shisa-6: ARGRSGNRTLNAGAVGGRRAGGALARGGRELNSTARASGVPEAGSRRGQSAAAAAAAAAAASATVTYETCWGYYDVSGQYDKEFECNNSESGYLYCCGTCYYRFCCKKRHEKLDQRQCTNYQSPVWVQTPSTKVVSPGPENKYDPEKDKTNFTVYITCGVIAFVIVAGVFAKVSYDKAHRPPREMNIHRALADILRQQGPIPIAHCERETISAIDTSPKENTPVRSTSKNHYTPVRTAKQTPGDRQYNHPILSSATQTPTHEKPRMNNILTSATEPYDLSFSRSYQNLAHLPPSYESAVKTNPSKYSSLKRLTDKEADEYYMRRRHLPDLAARGTLPLNVIQMSQQKPLPRERPRRPIRAMSQDRVLSPRRGLPDEFGMPYDRILSDEQLLSTERLHSQDPLLSPERTAFPEQSLSRAISHTDVFVSTPVLDRYRMTKMHSHPSASNNSYATLGQSQTAAKRHAFASRRHNTVEQLHYIPGHHTCYTASKTEVTV
On to B4, for which the log2FC is listed as -2.769 and the Class entry is on record as “Down”.
